Assay [1] addresses T1, human recombinant CCDC3 protein (human, UniProt Q9BQI4 22-270).
T1 construct: Secreted from Freestyle293 cells, purified from culture supernatant, 3xFlag tag removed with thrombin (31 kDa); the C-terminus at 270 follows from the C-terminus peptide 259-270; Also used biotin-labelled (PEO-maleimide biotin) as tracer; also called human CCDC3 recombinant protein; human CCDC3 protein
T1 sequence: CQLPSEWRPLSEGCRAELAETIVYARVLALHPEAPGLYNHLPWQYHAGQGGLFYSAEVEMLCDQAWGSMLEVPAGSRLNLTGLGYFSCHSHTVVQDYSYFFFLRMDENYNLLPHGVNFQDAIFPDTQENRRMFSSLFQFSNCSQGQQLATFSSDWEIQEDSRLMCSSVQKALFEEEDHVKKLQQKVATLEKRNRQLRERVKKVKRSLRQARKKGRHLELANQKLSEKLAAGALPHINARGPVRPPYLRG
Briefly: displacement ELISA: captured antibody, unlabelled human recombinant CCDC3 (0.01 to 100 nM) against biotin-human recombinant CCDC3. The procedure: A buffer A containing 10 μl of CCDC3 antibody was added to the anti-mouse IgG antibody-anchored plate, and 10 μl of 0.01 to 100 nM human recombinant CCDC3 was added. The mixture was allowed to react at 4° C. for 16 hours after adding buffer A (10 μl) that contained 1 ng of biotin-human recombinant CCDC3 protein and 4 ng of Streptavidin-HRP (PIERCE). Each well was washed three times with washing liquid (90 μl), and 25 μl of TMB+Substrate-Chromogen (DAKO) was added to develop color at room temperature for 30 min. The reaction was stopped by adding 25 μl of 0.5 M sulfuric acid, and absorbance at 450 nm was measured.
A general note: In an ELISA, binding on a coated surface is turned into a signal by an enzyme label.

Assay [2] has as its target T2, human CCDC3 protein C-terminus partial peptide (259-270) (human, PEO-maleimide activated biotin on the added N-terminal Cys).
T2 construct: the immunogen was the 12 mer conjugated to KLH; also called biotin-human CCDC3 protein C-terminus region peptide
Briefly: raised against the peptide-KLH; hybridoma screened by ELISA on the biotin-labelled peptide. The procedure: Specific antibody producing cells were screened 10 days after the cells were fused. Screening was performed by ELISA, as follows. A Tris buffer (50 mM Tris-HCl, pH 7.5, 35 μl) containing anti-mouse IgG antibodies (0.35 μg; Shibayagi Co., Ltd.) was added to each well of a 384-well microtiter plate (Nunc), and the antibodies were immobilized at 4° C. for 16 hours. The wells were washed once with 90 μl of washing liquid (physiological saline containing 0.01% Tween 20), and left unattended at room temperature for 2 hours for blocking after adding […] of Block Ace (Dainippon Pharma) (anti-mouse IgG antibody-anchored plate). After washing each well once with washing liquid (90 μl), a hybridoma culture supernatant (15 μl) and buffer A (10 μl; 50 mM Tris buffer containing 0.5% bovine serum albumin, 0.01% Tween 80, 0.05% Proclin 150, and 0.5 M NaCl; pH 7.4) were added. When the immunogen was the peptide-KLH conjugate, buffer A (10 μl) containing 0.02 ng of the biotin-human CCDC3 protein C-terminus region peptide and 2 ng of Streptavidin-HRP (PIERCE) was added. When the immunogen was the human recombinant CCDC3 protein or its KLH-conjugate, buffer A (10 μl) containing 1 ng of the biotin-human recombinant CCDC3 protein and 4 ng of Streptavidin-HRP (PIERCE) was added. […] The reaction was stopped by adding 25 μl of 0.5 M sulfuric acid, and absorbance at 450 nm was measured.

B1: 6G12 antibody (antibody, IgG1, V domains shown)
VH: QVQLQQPGAELVRPGASVKMSCKASGYTFSSYLMDWVKQRPGQGFECIGNINPNTGSTIYNERFKGKAKLTVDKSSSTAYMQLISLTSEDSAVYYCAADGYYAPFTYWGQGTLVTVSA
VL: DIVMTQAAPSVPVTPGESVSISCRSSKSLLHNNGNTYLYWFLQRPGQSPQLLIYRMSNLASGVPDRFSGSGSGTAFTLRISRVEAEDVGVYYCMQHLEYPFTFGAGTKLELKR
notes: Mouse hybridoma monoclonal, isotype IgG1; From a mouse immunized with antigen 3 (human recombinant CCDC3); Used biotinylated as capture antibody in the sandwich ELISA; also called human anti-CCDC3 antibody 6G12
By IC50 is commonly meant the concentration at which inhibition is half-maximal. Take B1: the concentration for half-maximal inhibition (IC50) in assay [1] was 3.2 nM.

B2: 3H6 antibody (antibody, IgG2b, V domains shown)
VH: QIQLVQSGPELKKPGETVKISCKASGYTFTNYGMIWVKQAPGKDLKWMAWINTYSGEPTCADDFKGRFAFSLETSASTAYLQINNLKNEDMATYFCARDDGYYGYFDYWGQGTTLTVSS
VL: DVVMTQTPLSLPVSLGDQASISCRSSQTLVHSDGNTYLHWYLQKPGQSPKLLIYKISNRFSGVPDRFSGSGSGTDFTLKISRVEAEDLGVYFCSQSTHVPPTFGGGTKLEIKR
notes: Mouse hybridoma monoclonal, isotype IgG2b; From a mouse immunized with antigen 1 (human CCDC3 C-terminus peptide 259-270 conjugated to KLH); Used biotinylated as capture antibody in the sandwich ELISA; also called human anti-CCDC3 antibody 3H6
Regarding B2, the binding result in assay [2] is “binds”. Also, the IC50 in assay [1] came to 9.4 nM.

B3: 11E10 antibody (antibody, IgG2b, V domains shown)
VH: QVQLQQSGPELVKPGASVKISCKASGYSFRSYYIHWMKQSPGQGLEWIAWIYPGGGKIYYNDNEKFKDKVTLTADTSSSTAYMQLTGLTSEDSAVYFCARWGGYYVGSILDYWGQGTSVTVSS
VL: DGDIVMTQSQKFLSTSVGDRVSVTCKASQNVDNNVAWYQQRPGQSPKPLIYLTSSRYSGVPDRFTGSGSGTDFTLTITNVQSEDLAEYFCQQYKTYPLTFSVGTKLELKRA
notes: Mouse hybridoma monoclonal, isotype IgG2b; From a mouse immunized with antigen 2 (human recombinant CCDC3-KLH conjugate); also called human anti-CCDC3 antibody 11E10
On to B3, for which the concentration for half-maximal inhibition (IC50) in assay [1] was 0.1 nM.

These data come from patent publication US20120066777A1 (SHIONOGI, published 2012).
